What was measured:
PilM [1] = biological target: PilM (Thermus thermophilus, UniProt Q72IW8); assay: luciferase assay of co-purified ATP after TCA precipitation; also UV photo cross-linking with [alpha-32P]-ATP; type: binding; settings: ATP retained from E. coli, none added
PilM [2] = biological target: T1, PilM (Thermus thermophilus, UniProt Q72IW8, K26A); assay: UV photo cross-linking and autoradiography; luciferase ATP content; settings: labelled compound [alpha-32P]-ATP; MN buffer pH 7.5, 5 mM MgCl2, 0.02% DDM, on ice; binding not detected
T1 construct: full length, N-terminal His6 tag kept; pET28a, E. coli BL21 (DE3), Ni-NTA from the soluble fraction of cells co-expressing pilN-Strep; about 44 kDa monomer
T1 sequence (Q72IW8 entry or part of it K26A): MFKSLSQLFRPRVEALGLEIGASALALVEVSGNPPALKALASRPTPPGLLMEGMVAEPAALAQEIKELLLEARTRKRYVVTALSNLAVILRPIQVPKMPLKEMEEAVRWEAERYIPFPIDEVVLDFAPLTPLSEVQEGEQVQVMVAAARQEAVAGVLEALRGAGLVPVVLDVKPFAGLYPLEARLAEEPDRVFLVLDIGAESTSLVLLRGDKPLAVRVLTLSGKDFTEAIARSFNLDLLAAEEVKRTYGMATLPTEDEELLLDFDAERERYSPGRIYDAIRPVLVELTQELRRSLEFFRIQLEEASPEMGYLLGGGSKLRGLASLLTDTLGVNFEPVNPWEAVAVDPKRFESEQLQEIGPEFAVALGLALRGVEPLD

[3] = biological target: His6-PilM-PilN-Strep complex (Thermus thermophilus HB27) (UniProt Q8VRL8)
[4] = biological target: His6-PilM(K26A)-PilN-Strep complex (Thermus thermophilus HB27) (UniProt Q8VRL8)
[5] = biological target: His6-PilF (traffic ATPase PilF, hexameric complex) (Thermus thermophilus); assay: native gel or EMSA; clear-native PAGE (3-15%) of purified His6-PilF; data not shown
[6] = biological target: PilN-Strep (Thermus thermophilus HB27) (UniProt Q8VRL7); assay: native gel or EMSA; 5-20% clear-native PAGE of purified His6-PilMN-Strep, His6-PilMNO-Strep and His6-PilM; bands of PilMN cut out and run on 14% SDS/PAGE

## Nc1ncnc2c1ncn2[C@@H]1O[C@H](COP(=O)(O)OP(=O)(O)OP(=O)(O)O)[C@@H](O)[C@H]1O [ATP]
PilM [1]
  ATP per PilM monomer: 0.89 ± 0.35 ATP per PilM monomer
PilM [2]
  UV photo cross-linking and autoradiography; luciferase ATP content: no ATP was found in the PilMK26A variant

## His6-PilF (traffic ATPase PilF, hexameric complex) (enzyme)
[3]
  ATPase activity of PilF (malachite green assay, 68 °C, 66.7 pmol PilF hexamer) with increasing amounts of PilMN, up to a ratio of 1 : 20 (PilF complex : PilMN complex): 2 fold
[4]
  ATPase activity of the PilF hexamer mixed with PilM (K26A)N complex in a ratio of 1 : 20: 2 fold
[5]
  stoichiometry N: 6

B1: His6-PilM (soluble PilM from cells expressing His6-pilMN-Strep) (natural protein)
chain: MFKSLSQLFRPRVEALGLEIGASALKLVEVSGNPPALKALASRPTPPGLLMEGMVAEPAALAQEIKELLLEARTRKRYVVTALSNLAVILRPIQVPKMPLKEMEEAVRWEAERYIPFPIDEVVLDFAPLTPLSEVQEGEQVQVMVAAARQEAVAGVLEALRGAGLVPVVLDVKPFAGLYPLEARLAEEPDRVFLVLDIGAESTSLVLLRGDKPLAVRVLTLSGKDFTEAIARSFNLDLLAAEEVKRTYGMATLPTEDEELLLDFDAERERYSPGRIYDAIRPVLVELTQELRRSLEFFRIQLEEASPEMGYLLGGGSKLRGLASLLTDTLGVNFEPVNPWEAVAVDPKRFESEQLQEIGPEFAVALGLALRGVEPLD
[6]
  stoichiometry N: 1 PilM : PilN
  stoichiometry PilM : PilN of the larger (~195 kDa) oligomer, copies of each chain (copies of each chain): 3

Source: article PMC6325625, “The traffic ATPase PilF interacts with the inner membrane platform of the DNA translocator and type IV pili from Thermus thermophilus” (FEBS Open Bio, 2018)
